Test results taken from US20140087995A1 (published 2014).
Numbered stars: 1 amine (or outer) side, 2 acyl side, 3 side chain; on linkers, the order of the positions; unused ones are H or OH. Bridge positions count the residues as written; N and C are the ends. * marks the point of attachment. C20 diacid = O=C(O)CCCCCCCCCCCCCCCCCCC(=O)*; γGlu = O=C(O)[C@H](CCC(=O)[*:2])N[*:1]

T1: human amylin receptor (amylin 3(a) receptor: human calcitonin receptor plus RAMP-3) (human, UniProt P30988 25-474; O60896 24-148)
T1 sequence (looked up) 1: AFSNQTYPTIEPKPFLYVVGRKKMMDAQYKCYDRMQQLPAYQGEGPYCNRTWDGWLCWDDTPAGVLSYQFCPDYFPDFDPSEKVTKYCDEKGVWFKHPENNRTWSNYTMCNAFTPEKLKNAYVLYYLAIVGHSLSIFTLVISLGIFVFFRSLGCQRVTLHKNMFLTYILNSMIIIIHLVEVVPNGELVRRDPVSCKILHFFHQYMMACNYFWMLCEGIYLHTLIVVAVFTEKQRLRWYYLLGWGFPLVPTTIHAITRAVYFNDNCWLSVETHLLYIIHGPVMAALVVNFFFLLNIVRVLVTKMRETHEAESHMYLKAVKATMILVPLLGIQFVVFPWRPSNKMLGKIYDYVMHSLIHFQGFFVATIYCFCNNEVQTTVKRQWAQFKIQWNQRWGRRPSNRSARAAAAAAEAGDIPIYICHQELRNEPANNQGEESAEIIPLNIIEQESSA
T1 sequence (looked up) 2: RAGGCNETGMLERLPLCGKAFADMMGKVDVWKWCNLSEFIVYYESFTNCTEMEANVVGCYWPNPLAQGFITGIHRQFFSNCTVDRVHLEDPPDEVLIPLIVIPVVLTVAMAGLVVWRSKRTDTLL

T2: human calcitonin receptor (human, UniProt P30988 25-474)
T2 sequence (looked up): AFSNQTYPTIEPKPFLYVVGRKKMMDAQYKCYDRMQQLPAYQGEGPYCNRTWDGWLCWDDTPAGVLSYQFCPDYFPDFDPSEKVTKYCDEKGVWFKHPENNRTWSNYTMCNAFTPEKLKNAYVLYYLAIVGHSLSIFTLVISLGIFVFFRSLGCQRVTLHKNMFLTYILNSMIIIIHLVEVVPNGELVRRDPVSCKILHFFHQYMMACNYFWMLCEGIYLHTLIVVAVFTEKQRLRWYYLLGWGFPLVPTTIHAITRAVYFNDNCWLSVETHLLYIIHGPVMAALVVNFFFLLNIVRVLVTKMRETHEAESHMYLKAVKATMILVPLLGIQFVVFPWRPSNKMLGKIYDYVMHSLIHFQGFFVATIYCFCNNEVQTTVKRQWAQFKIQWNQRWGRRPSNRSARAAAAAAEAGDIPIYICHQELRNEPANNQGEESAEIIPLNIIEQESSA


Experiments:
[1] = biological target: T1, human amylin receptor (amylin 3(a) …); test: cell-based or functional assay
[2] = biological target: T2, human calcitonin receptor; test: cell-based or functional assay
[3] = biological target: T1, human amylin receptor (amylin 3(a) …); test: SPA competition binding, displacement of 125I-rat amylin, membranes of BHK amylin 3(a)/CRE-luc cells
Protocol: The binding assay was performed using scintillation proximity assay (SPA) beads (RPNQ0001) from PerkinElmer and cell membranes from the Amylin 3(a)/CRE-luc cells (as described in Assay (II)) were used. Membranes were prepared in the following way; the cells were rinsed with PBS and incubated with Versene for approximately 5 min before harvesting. The cells were flushed with PBS and the cell-suspension was centrifuged for 5 min at 1000 rpm. Cells were homogenized (ultrathurrax) in a buffer containing 20 mM Na-HEPES and 10 mM EDTA (pH 7.4) and centrifuged at 20.000 rpm for 15 min. The resulting pellet was resuspended, homogenized and centrifuged (20.000 rpm, 15 min) in a buffer containing 20 mM Na-HEPES and 0.1 mM EDTA (pH 7.4, buffer 2). The resulting pellet was resuspended in buffer 2 and protein concentration was measured (BCA protein Assay, Pierce). The homogenate was kept cold during the whole procedure. The membranes were kept at −80° C. until use. The assay was performed in a 384 well Optiplate (PerkinElmer) in a total volume of 40 ul. Membranes were mixed with SPA beads. Final concentration of membranes 35 ng/μL final and SPA beads was 0.05 mg/well. Test-compounds were dissolved in DMSO and further diluted in assay buffer (50 mM Hepes, pH 7.4, 1 mM CaCl2, 5 mM MgCl₂, 0.1% OA and 0.02% Tween20). […] The final mixture was incubated with shaking at 400 rpm for 120 min at 25° C. prior to centrifugation (1500 rpm, 10 min). Samples were analyzed on TopCounter™ (Packard). The IC₅₀ was calculated using (one site binding competition analysis) GraphPad Prism5 as a measure of receptor affinity.

Ratio hCT/hAmylin funct. [1]	hAmylin-R funct. EC50 (pM) [1]	hCTR funct. EC50 (pM) [2]	IC50 [3]	Binder
2.2	243 pM	528 pM	0.915 nM	{C20 diacid-γGlu}-KCNTATCATQRLAEFLRHSSPNFGAILPSTNVGSETY-NH2 (disulfide 2-7, also called compound 33)
	134 pM	1680 pM	0.919 nM	{C20 diacid-γGlu}-KCNTATCATQRLAHFLRHSSPNFGAIPSSTNVGSETY-NH2 (disulfide 2-7; SMILES CC[C@H](C)[C@H](NC(=O)[C@H](C)NC(=O)CNC(=O)[C@H](Cc1ccccc1)NC(=O)[C@H](CC(N)=O)NC(=O)[C@@H]1CCCN1C(=O)[C@H](CO)NC(=O)[C@H](CO)NC(=O)[C@H](Cc1c[nH]cn1)NC(=O)[C@H](CCCNC(=N)N)NC(=O)[C@H](CC(C)C)NC(=O)[C@H](Cc1ccccc1)NC(=O)[C@H](Cc1c[nH]cn1)NC(=O)[C@H](C)NC(=O)[C@H](CC(C)C)NC(=O)[C@H](CCCNC(=N)N)NC(=O)[C@H](CCC(N)=O)NC(=O)[C@@H](NC(=O)[C@H](C)NC(=O)[C@@H]1CSSC[C@H](NC(=O)[C@H](CCCCN)NC(=O)CC[C@H](NC(=O)CCCCCCCCCCCCCCCCCCC(=O)O)C(=O)O)C(=O)N[C@@H](CC(N)=O)C(=O)N[C@@H]([C@@H](C)O)C(=O)N[C@@H](C)C(=O)N[C@@H]([C@@H](C)O)C(=O)N1)[C@@H](C)O)C(=O)N1CCC[C@H]1C(=O)N[C@@H](CO)C(=O)N[C@@H](CO)C(=O)N[C@H](C(=O)N[C@@H](CC(N)=O)C(=O)N[C@H](C(=O)NCC(=O)N[C@@H](CO)C(=O)N[C@@H](CCC(=O)O)C(=O)N[C@H](C(=O)N[C@@H](Cc1ccc(O)cc1)C(N)=O)[C@@H](C)O)C(C)C)[C@@H](C)O, also called compound 30)
4.8	154 pM	742 pM	0.554 nM	{C20 diacid-γGlu}-KCNTATCATQRLAEFLRHSSPNFGAIPSSTNVGSHTY-NH2 (disulfide 2-7; SMILES CC[C@H](C)[C@H](NC(=O)[C@H](C)NC(=O)CNC(=O)[C@H](Cc1ccccc1)NC(=O)[C@H](CC(N)=O)NC(=O)[C@@H]1CCCN1C(=O)[C@H](CO)NC(=O)[C@H](CO)NC(=O)[C@H](Cc1c[nH]cn1)NC(=O)[C@H](CCCNC(=N)N)NC(=O)[C@H](CC(C)C)NC(=O)[C@H](Cc1ccccc1)NC(=O)[C@H](CCC(=O)O)NC(=O)[C@H](C)NC(=O)[C@H](CC(C)C)NC(=O)[C@H](CCCNC(=N)N)NC(=O)[C@H](CCC(N)=O)NC(=O)[C@@H](NC(=O)[C@H](C)NC(=O)[C@@H]1CSSC[C@H](NC(=O)[C@H](CCCCN)NC(=O)CC[C@H](NC(=O)CCCCCCCCCCCCCCCCCCC(=O)O)C(=O)O)C(=O)N[C@@H](CC(N)=O)C(=O)N[C@@H]([C@@H](C)O)C(=O)N[C@@H](C)C(=O)N[C@@H]([C@@H](C)O)C(=O)N1)[C@@H](C)O)C(=O)N1CCC[C@H]1C(=O)N[C@@H](CO)C(=O)N[C@@H](CO)C(=O)N[C@H](C(=O)N[C@@H](CC(N)=O)C(=O)N[C@H](C(=O)NCC(=O)N[C@@H](CO)C(=O)N[C@@H](Cc1c[nH]cn1)C(=O)N[C@H](C(=O)N[C@@H](Cc1ccc(O)cc1)C(N)=O)[C@@H](C)O)C(C)C)[C@@H](C)O, also called compound 18)
8.7	99 pM	857 pM	0.577 nM	{C20 diacid-γGlu}-KCNTATCATQRLANFLRHSSPNFGAIPSSTNVGPETY-NH2 (disulfide 2-7; SMILES CC[C@H](C)[C@H](NC(=O)[C@H](C)NC(=O)CNC(=O)[C@H](Cc1ccccc1)NC(=O)[C@H](CC(N)=O)NC(=O)[C@@H]1CCCN1C(=O)[C@H](CO)NC(=O)[C@H](CO)NC(=O)[C@H](Cc1c[nH]cn1)NC(=O)[C@H](CCCNC(=N)N)NC(=O)[C@H](CC(C)C)NC(=O)[C@H](Cc1ccccc1)NC(=O)[C@H](CC(N)=O)NC(=O)[C@H](C)NC(=O)[C@H](CC(C)C)NC(=O)[C@H](CCCNC(=N)N)NC(=O)[C@H](CCC(N)=O)NC(=O)[C@@H](NC(=O)[C@H](C)NC(=O)[C@@H]1CSSC[C@H](NC(=O)[C@H](CCCCN)NC(=O)CC[C@H](NC(=O)CCCCCCCCCCCCCCCCCCC(=O)O)C(=O)O)C(=O)N[C@@H](CC(N)=O)C(=O)N[C@@H]([C@@H](C)O)C(=O)N[C@@H](C)C(=O)N[C@@H]([C@@H](C)O)C(=O)N1)[C@@H](C)O)C(=O)N1CCC[C@H]1C(=O)N[C@@H](CO)C(=O)N[C@@H](CO)C(=O)N[C@H](C(=O)N[C@@H](CC(N)=O)C(=O)N[C@H](C(=O)NCC(=O)N1CCC[C@H]1C(=O)N[C@@H](CCC(=O)O)C(=O)N[C@H](C(=O)N[C@@H](Cc1ccc(O)cc1)C(N)=O)[C@@H](C)O)C(C)C)[C@@H](C)O, also called compound 29)

More lines, now with the values behind:

Binder	Ratio hCT/hAmylin funct. [1]	hAmylin-R funct. EC50 (pM) [1]	hCTR funct. EC50 (pM) [2]	IC50 [3]
{C20 diacid-γGlu}-KCNTATCATQRLAEFLRHSSPNFGAIPSSTNVGSETY-NH2 (disulfide 2-7; SMILES CC[C@H](C)[C@H](NC(=O)[C@H](C)NC(=O)CNC(=O)[C@H](Cc1ccccc1)NC(=O)[C@H](CC(N)=O)NC(=O)[C@@H]1CCCN1C(=O)[C@H](CO)NC(=O)[C@H](CO)NC(=O)[C@H](Cc1c[nH]cn1)NC(=O)[C@H](CCCNC(=N)N)NC(=O)[C@H](CC(C)C)NC(=O)[C@H](Cc1ccccc1)NC(=O)[C@H](CCC(=O)O)NC(=O)[C@H](C)NC(=O)[C@H](CC(C)C)NC(=O)[C@H](CCCNC(=N)N)NC(=O)[C@H](CCC(N)=O)NC(=O)[C@@H](NC(=O)[C@H](C)NC(=O)[C@@H]1CSSC[C@H](NC(=O)[C@H](CCCCN)NC(=O)CC[C@H](NC(=O)CCCCCCCCCCCCCCCCCCC(=O)O)C(=O)O)C(=O)N[C@@H](CC(N)=O)C(=O)N[C@@H]([C@@H](C)O)C(=O)N[C@@H](C)C(=O)N[C@@H]([C@@H](C)O)C(=O)N1)[C@@H](C)O)C(=O)N1CCC[C@H]1C(=O)N[C@@H](CO)C(=O)N[C@@H](CO)C(=O)N[C@H](C(=O)N[C@@H](CC(N)=O)C(=O)N[C@H](C(=O)NCC(=O)N[C@@H](CO)C(=O)N[C@@H](CCC(=O)O)C(=O)N[C@H](C(=O)N[C@@H](Cc1ccc(O)cc1)C(N)=O)[C@@H](C)O)C(C)C)[C@@H](C)O, also called compound 22)	3.8	270 pM	1030 pM	0.794 nM
{C20 diacid-γGlu}-KCNTATCATQRLANFLRHSSPNFGAIPSSTPVGSETY-NH2 (disulfide 2-7; SMILES CC[C@H](C)[C@H](NC(=O)[C@H](C)NC(=O)CNC(=O)[C@H](Cc1ccccc1)NC(=O)[C@H](CC(N)=O)NC(=O)[C@@H]1CCCN1C(=O)[C@H](CO)NC(=O)[C@H](CO)NC(=O)[C@H](Cc1c[nH]cn1)NC(=O)[C@H](CCCNC(=N)N)NC(=O)[C@H](CC(C)C)NC(=O)[C@H](Cc1ccccc1)NC(=O)[C@H](CC(N)=O)NC(=O)[C@H](C)NC(=O)[C@H](CC(C)C)NC(=O)[C@H](CCCNC(=N)N)NC(=O)[C@H](CCC(N)=O)NC(=O)[C@@H](NC(=O)[C@H](C)NC(=O)[C@@H]1CSSC[C@H](NC(=O)[C@H](CCCCN)NC(=O)CC[C@H](NC(=O)CCCCCCCCCCCCCCCCCCC(=O)O)C(=O)O)C(=O)N[C@@H](CC(N)=O)C(=O)N[C@@H]([C@@H](C)O)C(=O)N[C@@H](C)C(=O)N[C@@H]([C@@H](C)O)C(=O)N1)[C@@H](C)O)C(=O)N1CCC[C@H]1C(=O)N[C@@H](CO)C(=O)N[C@@H](CO)C(=O)N[C@H](C(=O)N1CCC[C@H]1C(=O)N[C@H](C(=O)NCC(=O)N[C@@H](CO)C(=O)N[C@@H](CCC(=O)O)C(=O)N[C@H](C(=O)N[C@@H](Cc1ccc(O)cc1)C(N)=O)[C@@H](C)O)C(C)C)[C@@H](C)O, also called compound 28)	9.2	220 pM	2030 pM	0.61 nM
KCNTATCATQRLANFLRHSSPNFGAIPSSTNVGSETY (C20 diacid-gGlu on the alpha amino group of the N-terminal residue (Lys1); disulfide Cys2-Cys7 and C-terminal amide as in human amylin, also called compound 23) [N^α1-[(4S)-4-carboxy-4-(19-carboxynonadecanoylamino)butanoyl]-[Arg17,Pro21,Pro27,Glu35]-h-amylin]	8.9	340 pM	3020 pM	0.871 nM
